Measured values published in patent US20230383000A1.

Molecular target: human IL-1R3 on cells (SK-MEL-30, A549, HEK-293 and other human cell lines) (human) (UniProt Q9NPH3)
Experiment: flow cytometry on SK-MEL-30 cells (high IL-1R3 expression), 1:2 dilution series from 20 µg/ml

Chain of human IL-1R3 on cells (SK-MEL-30, A549, HEK-293 and other human cell lines) (human) (Q9NPH3 21-570): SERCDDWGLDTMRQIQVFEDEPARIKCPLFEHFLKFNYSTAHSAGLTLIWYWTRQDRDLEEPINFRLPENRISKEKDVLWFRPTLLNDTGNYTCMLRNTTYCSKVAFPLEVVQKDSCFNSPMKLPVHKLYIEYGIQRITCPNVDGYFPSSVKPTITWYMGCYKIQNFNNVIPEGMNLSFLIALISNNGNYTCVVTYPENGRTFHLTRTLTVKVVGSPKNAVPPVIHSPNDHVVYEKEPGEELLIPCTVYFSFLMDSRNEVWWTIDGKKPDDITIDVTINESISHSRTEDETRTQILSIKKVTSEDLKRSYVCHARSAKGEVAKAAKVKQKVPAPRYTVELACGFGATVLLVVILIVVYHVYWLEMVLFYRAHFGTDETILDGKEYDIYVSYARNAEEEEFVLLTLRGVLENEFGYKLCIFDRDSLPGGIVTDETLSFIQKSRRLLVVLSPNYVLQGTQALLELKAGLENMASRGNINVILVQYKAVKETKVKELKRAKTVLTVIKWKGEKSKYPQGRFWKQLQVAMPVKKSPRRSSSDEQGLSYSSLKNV

EC50: 0.307 µg/mL
B1: MAB-16-0030 (humanized anti-IL-1R3 IgG1-LALA antibody) (antibody, from another filing, V domains shown)
VH: EVQLEESGGRLVQPGTSLRLSCAVSGFSLSSYDMSWVRQAPGKGLEWVSTIYIGGTTAYASWPKGRFTISKTNSKNTLYLQMNSLRAEDTAVYFCARLQGANYYNSLALWGQGTLVTVSS
VL: DVQMTQSPSSLSASVGDRVTITCQASQSIYSFLSWYQQKPGQAPKLLIYAASDLESGVPSRFSGSGSGTDFTLTISSLQPEDFATYYCQCNYIIDYGAFGQGTKVVIKR
